Source: patent publication US20100184648A1 (published 2010)

Tests used:
Assay in all cases: receptor inhibition assay at 10 µM Compound A, ratio relative to a control compound
Glutamate AMPA receptor = target: Glutamate AMPA receptor
Method: (§1) The inhibitory action of Compound A against various receptors listed in Table 2 was examined to evaluate the specificity of Compound A. The activities of the receptors were measured by using an appropriate assay system according to the property of the respective receptors. Further, the evaluation results of Compound A were calculated as an inhibition ratio at a final concentration of 10 μM. Here, the inhibition ratio was calculated based on a value of a control compound in each assay. As is apparent from the results shown in Table 2, it was confirmed that Compound A is specific to an MCH receptor. Incidentally, examination was carried out with regard to 173 kinds of physiologically functional proteins including the receptors shown in Table 2, however, the affinity thereof could not be found other than the MCH receptors, and only major receptors are shown in Table 2.

Histamine H3 receptor = target: Histamine H3 receptor
Method: as §1

Neuropeptide Y1 receptor = target: Neuropeptide Y1 receptor
Method: as §1

Muscarine M1 receptor = target: Muscarine M1 receptor
Method: as §1

Inhibition ratio (Glutamate AMPA receptor): 8 | Inhibition ratio (Histamine H3 receptor): -6 | Inhibition ratio (Neuropeptide Y1 receptor): 17 | Inhibition ratio (Muscarine M1 receptor): 0
B1: Compound A (peptide)
peptide: RCMXRVYXC
modifications: N-terminal acetyl on Arg 1 (printed Arg-C(=O)CH3); C-terminal amide on Cys 9 (printed H2N-Cys); X at positions 4 and 8 = Ava (5-aminovaleric acid); the two Cys residues (2 and 9) are bound to each other through a -SS- bond
notes: Synthetic cyclic peptide with two non-natural Ava residues; The direction of the printed formula is interpreted; also called MCH1R antagonist; H2N-Cys-Ava-Tyr-Val-Arg-Ava-Met-Cys-Arg-C(=O)CH3
